The results in this text go back to paper PMC4045858, “Biochemical Characterization of Human Gluconokinase and the Proposed Metabolic Impact of Gluconic Acid as Determined by Constraint Based Metabolic Network Analysis” (PLoS ONE, 2014).

Substrate in series [1]: Nc1ncnc2c1ncn2[C@@H]1O[C@H](COP(=O)(O)OP(=O)(O)OP(=O)(O)O)[C@@H](O)[C@H]1O
The series is described as follows: purified protein. It is filed as biochemical, Homo sapiens. The settings on record: gluconate as fixed co-substrate, 0.65 mM NADP+, 100 mM phosphate, 40 mM NaCl, 2.5 mM MgCl2, pH 7.2, 0.25 µM enzyme.

Substrate in series [2]: O=C(O)[C@H](O)[C@@H](O)[C@H](O)[C@H](O)CO
The series is described as follows: purified protein. The settings on record: 1 mM ATP, 0.65 mM NADP+, 100 mM phosphate, 40 mM NaCl, 2.5 mM MgCl2, pH 7.2, 0.25 µM enzyme. It is filed as biochemical, Homo sapiens.

B1: human GntK (gluconokinase isoform I, C9orf103) (Homo sapiens) (protein)
chain: MAAPGALLVMGVSGSGKSTVGALLASELGWKFYDADDYHPEENRRKMGKGIPLNDQDRIPWLCNLHDILLRDVASGQRVVLACSALKKTYRDILTQGKDGVALKCEESGKEAKQAEMQLLVVHLSGSFEVISGRLLKREGHFMPPELLQSQFETLEPPAAPENFIQISVDKNVSEIIATIMETLKMK
notes: dimer, also tetramer
As usually defined, the Km is the concentration of substrate that gives half-maximal velocity. For orientation: Vmax means the top rate of the reaction or transport when substrate is in excess. The term kcat denotes the number of substrate molecules converted per active site and unit of time at saturation. What is called kcat/Km is the second-order rate constant that governs catalysis at low substrate concentration. Turning to B1, in “purified protein [1]”, the Km came to 343.8 ± 13.9 µM, the Vmax was 144 µM/min, the kcat is 9.5 ± 0.5 s⁻¹ and the kcat/Km is 28000 ± 2000 M⁻¹ s⁻¹. In addition, in “purified protein [2]”, the Km stood at 106.4 ± 18.5 µM, the Vmax turned out to be 138 µM/min, the kcat worked out at 9.3 ± 0.5 s⁻¹ and the kcat/Km is 89000 ± 13000 M⁻¹ s⁻¹.
